According to US20090253630A1:

Target: PTHR-emGFP expressed in transfected HEK 293 cells
Assay: cell-based or functional assay

PTHR1 internalization at 20 min, 100 nM compound, percent of vehicle only control (baseline=100%) (% of vehicle only control): 166
PTHR1 internalization at 40 min, 100 nM compound, percent of vehicle only control (baseline=100%) (% of vehicle only control): 177
PTHR1 internalization at 60 min, 100 nM compound, percent of vehicle only control (baseline=100%) (% of vehicle only control): 224
PTHR1 internalization at 180 min, 100 nM compound, percent of vehicle only control (baseline=100%) (% of vehicle only control): 175
Substance: PTH(1-38) (from UniProt P01270 32-69) (peptide)
